Legend:
[1] = molecular target: human FAM19A5-Fc protein (human), Q7Z5A7; experiment: cell-based or functional assay
[2] = molecular target: Recombinant human FAM19A5 protein (His-tagged) (human) (UniProt Q7Z5A7); experiment: SPR, FAM19A5 immobilised on sensor chip, antibody as analyte, single cycle kinetics, 1:1 fit
[3] = molecular target: Recombinant human FAM19A5 protein (His-tagged) (human) (UniProt Q7Z5A7); experiment: SPR (Biacore): FAM19A5 protein immobilised on the sensor chip, antibody injected at 1.1 to 90 nM in single cycle kinetics mode, 1:1 binding fit

Chain of human FAM19A5-Fc protein (human), Q7Z5A7 (Q7Z5A7 44-132): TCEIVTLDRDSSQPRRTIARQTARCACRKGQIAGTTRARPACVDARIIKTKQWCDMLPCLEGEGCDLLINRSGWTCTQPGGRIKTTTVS
Chain of Recombinant human FAM19A5 protein (His-tagged) (human) (Q7Z5A7 44-132): as above

B1: Reference anti-FAM19A5 antibody ("1-65") (antibody, V domains shown)
VH: AVTLDESGGGLQTPGGALSLVCKASGFTFSSYQMGWVRQAPGKGLEWVGVINKSGSDTSYGSAVKGRATISRDNGQSTVRLQLNNLRAEDTGTYFCAKGSASYITAATIDAWGHGTEVIVSS
VL: ALTQPSSVSANPGETVKITCSGGGSSGYGYGWYQQKSPSSAPLTVIYWNDKRPSDIPSRFSGSKSGSTHTLTITGVQAEDEAVYFCGNDDYSSDSGYVGVFGAGTTLTVL
- amount of phagocytosis (uptake of pHrodo Green E. coli BioParticles by BV2 cells) compared to the control group (PBS alone), about 10 hours after BioParticles [1]: 86%
- Kd [2]: 0.345 nM
- koff [3]: 0.000567 s⁻¹
- kon [3]: 1.64e+06 M⁻¹ s⁻¹

B2: Anti-FAM19A5 antibody ("SS01-13-s5") (antibody, V domains shown)
VH: AVTLDESGGGLQTPGGALRLSCKASGFTFSSYQMGWVRQAPGKGLEWVSAINKSGSDTSYGSAVKGRATISRDNGQSTLYLQMNSLRAEDTAVYFCAKGSASYITAATIDAWGHGTEVIVSS
VL: ALTQPSSVSANPGETARITCSGGASSGYGYGWYQQKPSSAPLTVIYKDSERPSDIPSRFSGSSSGSTHTLTISGVQAEDEAVYFCGNDDYSSDSGYVGVFGAGTTLTVL
- amount of phagocytosis (uptake of pHrodo Green E. coli BioParticles by BV2 cells) compared to the control group (PBS alone), about 10 hours after BioParticles [1]: 96%
- Kd [2]: 2.2 nM
- koff [3]: 0.000822 s⁻¹
- kon [3]: 373000 M⁻¹ s⁻¹

B3: Anti-FAM19A5 antibody ("S5-SG") (antibody, V domains shown)
VH: AVTLDESGGGLQTPGGALRLSCKASGFTFSSYQMGWVRQAPGKGLEWVSAINKGGSDTSYGSAVKGRATISRDNGQSTLYLQMNSLRAEDTAVYFCAKGSASYITAATIDAWGHGTEVIVSS
VL: ALTQPSSVSANPGETARITCSGGASSGYGYGWYQQKPSSAPLTVIYKDSERPSDIPSRFSGSSSGSTHTLTISGVQAEDEAVYFCGNDDYSSDSGYVGVFGAGTTLTVL
- amount of phagocytosis (uptake of pHrodo Green E. coli BioParticles by BV2 cells) compared to the control group (PBS alone), about 10 hours after BioParticles [1]: 89%
- Kd [2]: 1.8 nM
- koff [3]: 0.00183 s⁻¹
- kon [3]: 1.02e+06 M⁻¹ s⁻¹

Reference: patent publication US20210054062A1
